# In the Human Domainome abundance scans (Beltran et al. 2025):
# ± gives the uncertainty stated by the source.
# B1: Membrane-associated guanylate kinase, WW and PDZ domain-containing protein 2, residues 296 to 340; numbered along this chain, Q86UL8 (parent)
# chain: EDNEEPDPLPDNWEMAYTEKGEVYFIDHNTKTTSWLDPRLAKKAK
# B2: Zinc finger MYM-type protein 3, residues 405 to 444; numbered along this chain, Q14202 (parent)
# chain: DATRCSICQKTGEVLHEVSNGSVVHRLCSDSCFSKFRANK
# Variants of: B1
# Assay: abundance fitness (aPCA) (normalised: wild type 0, dead -1); higher = more abundant; growth selection in yeast, the domain comes from the species named
# Conditions: Homo sapiens
row,Variant,abundance fitness
1,K42M,0.011 ± 0.071
2,K42N,0.032 ± 0.18
3,K42P,0.128 ± 0.066
4,K42R,0.021 ± 0.046
5,K42T,-0.148 ± 0.15
6,K42V,0.079 ± 0.093
7,K42W,0.089 ± 0.094
8,K42Y,-0.033 ± 0.11
9,K43A,0.062 ± 0.085
10,K43D,0.029 ± 0.12
11,K43F,-0.142 ± 0.093
12,K43G,0.066 ± 0.047
13,K43I,-0.139 ± 0.48
14,K43L,-0.113 ± 0.053
15,K43N,-0.324 ± 0.42
16,K43R,0.023 ± 0.063

row,Variant,abundance fitness
1,K43T,-0.043 ± 0.12
2,K43V,0.023 ± 0.094
3,K43W,-0.2 ± 0.075
4,A44E,0.07 ± 0.064
5,A44L,-0.111 ± 0.063
6,A44R,-0.076 ± 0.056
7,A44V,-0.009 ± 0.064
8,A44W,-0.118 ± 0.087
9,K45E,-0.022 ± 0.098
10,K45G,0.081 ± 0.067
11,K45Q,0.1 ± 0.21
12,K45R,0.199 ± 0.23
13,K45S,0.076 ± 0.074
14,K45V,0.209 ± 0.28
15,K45W,-0.01 ± 0.087

# Variants of: B2
# Assay: as above
# Conditions: Homo sapiens
row,Variant,abundance fitness
1,AATRCSICQKTGEVLHEVSNGSVVHRLCSDSCFSKFRANK [D1A],-0.182 ± 0.089
2,EATRCSICQKTGEVLHEVSNGSVVHRLCSDSCFSKFRANK [D1E],0.331 ± 0.076
3,FATRCSICQKTGEVLHEVSNGSVVHRLCSDSCFSKFRANK [D1F],-0.219 ± 0.11
4,GATRCSICQKTGEVLHEVSNGSVVHRLCSDSCFSKFRANK [D1G],0.154 ± 0.054
5,KATRCSICQKTGEVLHEVSNGSVVHRLCSDSCFSKFRANK [D1K],0.157 ± 0.079
6,LATRCSICQKTGEVLHEVSNGSVVHRLCSDSCFSKFRANK [D1L],-0.07 ± 0.11
7,MATRCSICQKTGEVLHEVSNGSVVHRLCSDSCFSKFRANK [D1M],0.112 ± 0.098
8,NATRCSICQKTGEVLHEVSNGSVVHRLCSDSCFSKFRANK [D1N],0.142 ± 0.13
9,PATRCSICQKTGEVLHEVSNGSVVHRLCSDSCFSKFRANK [D1P],-0.32 ± 0.1
10,QATRCSICQKTGEVLHEVSNGSVVHRLCSDSCFSKFRANK [D1Q],-0.251 ± 0.12
11,RATRCSICQKTGEVLHEVSNGSVVHRLCSDSCFSKFRANK [D1R],-0.165 ± 0.065
12,SATRCSICQKTGEVLHEVSNGSVVHRLCSDSCFSKFRANK [D1S],-0.054 ± 0.09
13,TATRCSICQKTGEVLHEVSNGSVVHRLCSDSCFSKFRANK [D1T],0.303 ± 0.12
14,VATRCSICQKTGEVLHEVSNGSVVHRLCSDSCFSKFRANK [D1V],0.083 ± 0.065
15,WATRCSICQKTGEVLHEVSNGSVVHRLCSDSCFSKFRANK [D1W],-0.504 ± 0.23
16,DCTRCSICQKTGEVLHEVSNGSVVHRLCSDSCFSKFRANK [A2C],0.305 ± 0.071
17,DDTRCSICQKTGEVLHEVSNGSVVHRLCSDSCFSKFRANK [A2D],0.305 ± 0.067
18,DETRCSICQKTGEVLHEVSNGSVVHRLCSDSCFSKFRANK [A2E],-0.013 ± 0.063
19,DFTRCSICQKTGEVLHEVSNGSVVHRLCSDSCFSKFRANK [A2F],0.186 ± 0.14
20,DGTRCSICQKTGEVLHEVSNGSVVHRLCSDSCFSKFRANK [A2G],-0.186 ± 0.055
21,DHTRCSICQKTGEVLHEVSNGSVVHRLCSDSCFSKFRANK [A2H],0.041 ± 0.11
22,DITRCSICQKTGEVLHEVSNGSVVHRLCSDSCFSKFRANK [A2I],0.327 ± 0.11
23,DKTRCSICQKTGEVLHEVSNGSVVHRLCSDSCFSKFRANK [A2K],0.243 ± 0.08
24,DMTRCSICQKTGEVLHEVSNGSVVHRLCSDSCFSKFRANK [A2M],0.48 ± 0.064
25,DNTRCSICQKTGEVLHEVSNGSVVHRLCSDSCFSKFRANK [A2N],0.461 ± 0.072

row,Variant,abundance fitness
1,DPTRCSICQKTGEVLHEVSNGSVVHRLCSDSCFSKFRANK [A2P],-0.225 ± 0.068
2,DQTRCSICQKTGEVLHEVSNGSVVHRLCSDSCFSKFRANK [A2Q],0.285 ± 0.069
3,DRTRCSICQKTGEVLHEVSNGSVVHRLCSDSCFSKFRANK [A2R],-0.089 ± 0.053
4,DTTRCSICQKTGEVLHEVSNGSVVHRLCSDSCFSKFRANK [A2T],0.35 ± 0.062
5,DVTRCSICQKTGEVLHEVSNGSVVHRLCSDSCFSKFRANK [A2V],-0.603 ± 0.068
6,DWTRCSICQKTGEVLHEVSNGSVVHRLCSDSCFSKFRANK [A2W],-0.204 ± 0.08
7,DAARCSICQKTGEVLHEVSNGSVVHRLCSDSCFSKFRANK [T3A],-0.366 ± 0.057
8,DACRCSICQKTGEVLHEVSNGSVVHRLCSDSCFSKFRANK [T3C],-0.726 ± 0.1
9,DADRCSICQKTGEVLHEVSNGSVVHRLCSDSCFSKFRANK [T3D],-0.088 ± 0.067
10,DAFRCSICQKTGEVLHEVSNGSVVHRLCSDSCFSKFRANK [T3F],-0.181 ± 0.078
11,DAGRCSICQKTGEVLHEVSNGSVVHRLCSDSCFSKFRANK [T3G],0.091 ± 0.054
12,DAIRCSICQKTGEVLHEVSNGSVVHRLCSDSCFSKFRANK [T3I],-0.028 ± 0.075
13,DAKRCSICQKTGEVLHEVSNGSVVHRLCSDSCFSKFRANK [T3K],0.272 ± 0.057
14,DALRCSICQKTGEVLHEVSNGSVVHRLCSDSCFSKFRANK [T3L],-0.061 ± 0.056
15,DAMRCSICQKTGEVLHEVSNGSVVHRLCSDSCFSKFRANK [T3M],0.426 ± 0.061
16,DANRCSICQKTGEVLHEVSNGSVVHRLCSDSCFSKFRANK [T3N],0.025 ± 0.091
17,DAPRCSICQKTGEVLHEVSNGSVVHRLCSDSCFSKFRANK [T3P],-0.561 ± 0.067
18,DAQRCSICQKTGEVLHEVSNGSVVHRLCSDSCFSKFRANK [T3Q],0.205 ± 0.061
19,DARRCSICQKTGEVLHEVSNGSVVHRLCSDSCFSKFRANK [T3R],-0.047 ± 0.052
20,DASRCSICQKTGEVLHEVSNGSVVHRLCSDSCFSKFRANK [T3S],-0.06 ± 0.058
21,DAVRCSICQKTGEVLHEVSNGSVVHRLCSDSCFSKFRANK [T3V],-0.388 ± 0.056
22,DAWRCSICQKTGEVLHEVSNGSVVHRLCSDSCFSKFRANK [T3W],-0.085 ± 0.058
23,DAYRCSICQKTGEVLHEVSNGSVVHRLCSDSCFSKFRANK [T3Y],-0.025 ± 0.075
24,DATACSICQKTGEVLHEVSNGSVVHRLCSDSCFSKFRANK [R4A],-0.2 ± 0.056
25,DATCCSICQKTGEVLHEVSNGSVVHRLCSDSCFSKFRANK [R4C],-0.012 ± 0.073

row,Variant,abundance fitness
1,DATDCSICQKTGEVLHEVSNGSVVHRLCSDSCFSKFRANK [R4D],0 ± 0.081
2,DATECSICQKTGEVLHEVSNGSVVHRLCSDSCFSKFRANK [R4E],-0.211 ± 0.067
3,DATFCSICQKTGEVLHEVSNGSVVHRLCSDSCFSKFRANK [R4F],0.147 ± 0.11
4,DATGCSICQKTGEVLHEVSNGSVVHRLCSDSCFSKFRANK [R4G],-0.219 ± 0.051
5,DATHCSICQKTGEVLHEVSNGSVVHRLCSDSCFSKFRANK [R4H],-0.039 ± 0.08
6,DATICSICQKTGEVLHEVSNGSVVHRLCSDSCFSKFRANK [R4I],0.211 ± 0.062
7,DATLCSICQKTGEVLHEVSNGSVVHRLCSDSCFSKFRANK [R4L],-0.32 ± 0.054
8,DATMCSICQKTGEVLHEVSNGSVVHRLCSDSCFSKFRANK [R4M],0.047 ± 0.058
9,DATNCSICQKTGEVLHEVSNGSVVHRLCSDSCFSKFRANK [R4N],0.122 ± 0.081
10,DATPCSICQKTGEVLHEVSNGSVVHRLCSDSCFSKFRANK [R4P],-0.335 ± 0.064
11,DATSCSICQKTGEVLHEVSNGSVVHRLCSDSCFSKFRANK [R4S],-0.35 ± 0.062
12,DATTCSICQKTGEVLHEVSNGSVVHRLCSDSCFSKFRANK [R4T],-0.125 ± 0.064
13,DATVCSICQKTGEVLHEVSNGSVVHRLCSDSCFSKFRANK [R4V],-0.193 ± 0.057
14,DATWCSICQKTGEVLHEVSNGSVVHRLCSDSCFSKFRANK [R4W],-0.563 ± 0.066
15,DATYCSICQKTGEVLHEVSNGSVVHRLCSDSCFSKFRANK [R4Y],0.079 ± 0.072
16,DATRASICQKTGEVLHEVSNGSVVHRLCSDSCFSKFRANK [C5A],-1.29 ± 0.094
17,DATRDSICQKTGEVLHEVSNGSVVHRLCSDSCFSKFRANK [C5D],-0.79 ± 0.22
18,DATRFSICQKTGEVLHEVSNGSVVHRLCSDSCFSKFRANK [C5F],-0.776 ± 0.14
19,DATRGSICQKTGEVLHEVSNGSVVHRLCSDSCFSKFRANK [C5G],-0.914 ± 0.068
20,DATRLSICQKTGEVLHEVSNGSVVHRLCSDSCFSKFRANK [C5L],-0.835 ± 0.08
21,DATRPSICQKTGEVLHEVSNGSVVHRLCSDSCFSKFRANK [C5P],-1.02 ± 0.17
22,DATRQSICQKTGEVLHEVSNGSVVHRLCSDSCFSKFRANK [C5Q],-1.05 ± 0.089
23,DATRSSICQKTGEVLHEVSNGSVVHRLCSDSCFSKFRANK [C5S],-0.922 ± 0.097
24,DATRTSICQKTGEVLHEVSNGSVVHRLCSDSCFSKFRANK [C5T],-0.836 ± 0.088
